Here are results for seven molecules from paper PMC11079166.

The target in experiment [1] is complement component C1r (human).
The target in experiment [2] is CihC of B. recurrentis A17 (aa 20-356) (Borrelia recurrentis A17). Kind of experiment: ELISA; CihC/FbpC orthologs (5 µg/ml) immobilised, increasing plasminogen (0 to 1.5 µM); apparent dissociation constant by non-linear regression, one-site specific binding model. On the technique in general: ELISA stands for enzyme-linked immunosorbent assay.
Experiment [3] deals with CihC/FbpC of B. hermsii FRO (aa 21-374) (Borrelia hermsii FRO). The description is as above.
In experiment [4] the target is CihC/FbpC ortholog of B. parkeri (aa 25-349) (Borrelia parkeri). The experiment is described as above.
Experiment [5] has as its target CihC/FbpC ortholog of B. turicatae (aa 21-363) (Borrelia turicatae). Described as above.

Consider “CihC of B. recurrentis A17 (aa 20-356) (natural protein)”, for which, in experiment [1], the IC50 of inhibition of the classical pathway (MAC formation, anti-C5b-9 ELISA on IgM; NHS pre-incubated with 0.001 to 4 µM protein) was 62 nM. As for “CihC-C of B. recurrentis (aa 195-356) (domain or fragment)”, the IC50 of inhibition of the classical pathway (MAC formation, anti-C5b-9 ELISA on IgM; NHS pre-incubated with 0.001 to 4 µM protein) in experiment [1] was found to be 272 nM. On the same count and under the same terms, in the case of “CihC/FbpC of B. hermsii FRO (aa 21-374) (natural protein)” it was 56 nM.

In experiment [1], “CihC/FbpC ortholog of B. parkeri (aa 25-349) (natural protein)” had an IC50 of inhibition of the classical pathway (MAC formation, anti-C5b-9 ELISA on IgM; NHS pre-incubated with 0.001 to 4 µM protein) of 63 nM.

In experiment [1], “CihC/FbpC ortholog of B. turicatae (aa 21-363) (natural protein)” had an IC50 of inhibition of the classical pathway (MAC formation, anti-C5b-9 ELISA on IgM; NHS pre-incubated with 0.001 to 4 µM protein) of 95 nM. human glu-plasminogen (natural protein): the Kd in experiment [2] worked out at 93.1 nM; in experiment [3], 24.2 nM; in experiment [4] it was 62.7 nM; in experiment [5], 284 nM.

B1: C-terminal fragment of BBK32 of B. burgdorferi B31 (domain or fragment)
chain: SNRYQSYLEGVKYNVDSAIQTITKIYNTYTLFSTKLTQMYSTRLDNFAKAKAKEEAAKFTKEDLEKNFKTLLNYIQVSVKTAANFVYINDTHAKRKLENIEAEIKTLIAKIKEQSNLYEAYKAIVTSILLMRDSLKEVQGIID
As for B1, the IC50 of inhibition of the classical pathway (MAC formation, anti-C5b-9 ELISA on IgM; NHS pre-incubated with 0.001 to 4 µM protein) in experiment [1] worked out at 75 nM.
